From paper PMC4806929, “Two New Native β-Glucosidases from Clavispora NRRL Y-50464 Confer Its Dual Function as Cellobiose Fermenting Ethanologenic Yeast” (PLoS ONE, 2016) come the findings set out here.

By Km is commonly meant the substrate concentration at which the rate is half of its maximum. A word on the Vmax: it is the top rate of the reaction or transport when substrate is in excess. Usually kcat stands for the number of substrate molecules converted per active site and unit of time at saturation. By kcat/Km is commonly meant the turnover number divided by the Michaelis constant.

One data set deals with T1, BGL2 (Clavispora sp. NRRL Y-50464, UniProt A0A141S030).
T1 construct: C-terminal His tag, vector pPICZalphaA, expressed in Pichia X33; partially purified by Ni-NTA; GH3
T1 sequence (A0A141S030 1-804): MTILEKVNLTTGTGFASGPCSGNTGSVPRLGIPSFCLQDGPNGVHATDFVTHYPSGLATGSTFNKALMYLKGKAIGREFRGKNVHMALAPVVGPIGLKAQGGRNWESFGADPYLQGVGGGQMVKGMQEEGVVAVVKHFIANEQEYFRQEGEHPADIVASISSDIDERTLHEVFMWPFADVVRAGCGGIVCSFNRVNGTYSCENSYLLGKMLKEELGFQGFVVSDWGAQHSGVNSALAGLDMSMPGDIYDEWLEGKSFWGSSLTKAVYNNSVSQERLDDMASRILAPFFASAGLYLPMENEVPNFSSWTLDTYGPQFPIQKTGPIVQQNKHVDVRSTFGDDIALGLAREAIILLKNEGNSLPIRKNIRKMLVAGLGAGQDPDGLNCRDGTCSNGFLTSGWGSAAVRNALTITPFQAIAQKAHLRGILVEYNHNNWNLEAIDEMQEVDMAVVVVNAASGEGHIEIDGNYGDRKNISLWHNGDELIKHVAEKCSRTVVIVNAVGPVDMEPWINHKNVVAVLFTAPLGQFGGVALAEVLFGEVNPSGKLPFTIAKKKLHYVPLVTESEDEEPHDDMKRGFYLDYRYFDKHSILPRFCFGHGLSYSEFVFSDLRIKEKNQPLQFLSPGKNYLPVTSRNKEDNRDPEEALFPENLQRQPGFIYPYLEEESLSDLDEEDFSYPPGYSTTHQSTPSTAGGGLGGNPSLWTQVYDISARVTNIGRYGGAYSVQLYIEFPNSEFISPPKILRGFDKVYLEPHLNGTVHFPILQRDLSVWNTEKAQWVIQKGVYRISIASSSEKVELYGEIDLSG
Kind of data set: pNPG hydrolysis, absorbance at […] nm. As to conditions: product inhibition; substrate pNPG; 100 mM citrate buffer, optimal pH and temperature (pH 5, 50°C); read-out: K i (mM) (against glucose). Format: biochemical.

A further data set concerns the target T2, BGL3 (Clavispora sp. NRRL Y-50464, UniProt A0A141S029).
T2 construct: C-terminal His tag, vector pPICZalphaB, expressed in Pichia X33; partially purified by Ni-NTA; GH3
T2 sequence (A0A141S029 1-837): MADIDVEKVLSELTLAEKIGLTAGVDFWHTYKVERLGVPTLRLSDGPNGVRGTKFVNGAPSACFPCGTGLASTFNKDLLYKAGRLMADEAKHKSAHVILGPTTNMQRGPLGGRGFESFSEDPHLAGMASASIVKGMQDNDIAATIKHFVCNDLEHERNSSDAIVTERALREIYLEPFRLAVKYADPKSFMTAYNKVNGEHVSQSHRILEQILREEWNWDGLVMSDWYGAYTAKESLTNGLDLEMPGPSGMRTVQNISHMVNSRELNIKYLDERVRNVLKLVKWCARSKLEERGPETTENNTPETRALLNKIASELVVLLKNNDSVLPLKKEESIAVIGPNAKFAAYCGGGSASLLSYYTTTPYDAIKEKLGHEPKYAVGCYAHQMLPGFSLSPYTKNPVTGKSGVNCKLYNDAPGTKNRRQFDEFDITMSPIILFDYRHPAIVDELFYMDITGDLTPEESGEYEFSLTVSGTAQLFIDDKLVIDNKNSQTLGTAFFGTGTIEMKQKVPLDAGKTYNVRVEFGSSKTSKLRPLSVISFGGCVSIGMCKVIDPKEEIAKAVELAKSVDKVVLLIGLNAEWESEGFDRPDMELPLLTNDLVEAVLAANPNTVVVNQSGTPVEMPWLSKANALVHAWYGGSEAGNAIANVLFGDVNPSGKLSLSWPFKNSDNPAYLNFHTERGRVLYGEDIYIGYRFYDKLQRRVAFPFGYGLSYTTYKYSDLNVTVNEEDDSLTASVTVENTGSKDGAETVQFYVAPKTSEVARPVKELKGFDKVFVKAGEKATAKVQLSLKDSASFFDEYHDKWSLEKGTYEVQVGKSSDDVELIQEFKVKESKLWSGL
Kind of data set: pNPG hydrolysis, absorbance at […] nm. In kind it is biochemical. Conditions: product inhibition; substrate pNPG; 100 mM citrate buffer, optimal pH and temperature (pH 5, 55°C); read-out: K i (mM) (against glucose).

Substrate in the data set “purified protein”: O=[N+]([O-])c1ccc(O[C@@H]2O[C@H](CO)[C@@H](O)[C@H](O)[C@H]2O)cc1
The experiment in a line: purified protein. Conditions: 100 mM citrate buffer.

Regarding `OC[C@H]1OC(O)[C@H](O)[C@@H](O)[C@@H]1O` (stereo partly shown) [glucose], the Ki at BGL2 was 62 ± 2.49 mM; on BGL3, 38.3 ± 1.15 mM.

B1: BGL3 (Clavispora sp. NRRL Y-50464) (protein)
chain: MADIDVEKVLSELTLAEKIGLTAGVDFWHTYKVERLGVPTLRLSDGPNGVRGTKFVNGAPSACFPCGTGLASTFNKDLLYKAGRLMADEAKHKSAHVILGPTTNMQRGPLGGRGFESFSEDPHLAGMASASIVKGMQDNDIAATIKHFVCNDLEHERNSSDAIVTERALREIYLEPFRLAVKYADPKSFMTAYNKVNGEHVSQSHRILEQILREEWNWDGLVMSDWYGAYTAKESLTNGLDLEMPGPSGMRTVQNISHMVNSRELNIKYLDERVRNVLKLVKWCARSKLEERGPETTENNTPETRALLNKIASELVVLLKNNDSVLPLKKEESIAVIGPNAKFAAYCGGGSASLLSYYTTTPYDAIKEKLGHEPKYAVGCYAHQMLPGFSLSPYTKNPVTGKSGVNCKLYNDAPGTKNRRQFDEFDITMSPIILFDYRHPAIVDELFYMDITGDLTPEESGEYEFSLTVSGTAQLFIDDKLVIDNKNSQTLGTAFFGTGTIEMKQKVPLDAGKTYNVRVEFGSSKTSKLRPLSVISFGGCVSIGMCKVIDPKEEIAKAVELAKSVDKVVLLIGLNAEWESEGFDRPDMELPLLTNDLVEAVLAANPNTVVVNQSGTPVEMPWLSKANALVHAWYGGSEAGNAIANVLFGDVNPSGKLSLSWPFKNSDNPAYLNFHTERGRVLYGEDIYIGYRFYDKLQRRVAFPFGYGLSYTTYKYSDLNVTVNEEDDSLTASVTVENTGSKDGAETVQFYVAPKTSEVARPVKELKGFDKVFVKAGEKATAKVQLSLKDSASFFDEYHDKWSLEKGTYEVQVGKSSDDVELIQEFKVKESKLWSGL
For B1, in the data set “purified protein”, the Michaelis-Menten constant (Km) came out at 180 ± 20 µM, the Vmax stood at 1.63 µmol/min/mg, the turnover number (kcat) was 1.4 s⁻¹ and the kcat/Km is 7710 M⁻¹ s⁻¹.

B2: BGL2 (Clavispora sp. NRRL Y-50464) (protein)
chain: MTILEKVNLTTGTGFASGPCSGNTGSVPRLGIPSFCLQDGPNGVHATDFVTHYPSGLATGSTFNKALMYLKGKAIGREFRGKNVHMALAPVVGPIGLKAQGGRNWESFGADPYLQGVGGGQMVKGMQEEGVVAVVKHFIANEQEYFRQEGEHPADIVASISSDIDERTLHEVFMWPFADVVRAGCGGIVCSFNRVNGTYSCENSYLLGKMLKEELGFQGFVVSDWGAQHSGVNSALAGLDMSMPGDIYDEWLEGKSFWGSSLTKAVYNNSVSQERLDDMASRILAPFFASAGLYLPMENEVPNFSSWTLDTYGPQFPIQKTGPIVQQNKHVDVRSTFGDDIALGLAREAIILLKNEGNSLPIRKNIRKMLVAGLGAGQDPDGLNCRDGTCSNGFLTSGWGSAAVRNALTITPFQAIAQKAHLRGILVEYNHNNWNLEAIDEMQEVDMAVVVVNAASGEGHIEIDGNYGDRKNISLWHNGDELIKHVAEKCSRTVVIVNAVGPVDMEPWINHKNVVAVLFTAPLGQFGGVALAEVLFGEVNPSGKLPFTIAKKKLHYVPLVTESEDEEPHDDMKRGFYLDYRYFDKHSILPRFCFGHGLSYSEFVFSDLRIKEKNQPLQFLSPGKNYLPVTSRNKEDNRDPEEALFPENLQRQPGFIYPYLEEESLSDLDEEDFSYPPGYSTTHQSTPSTAGGGLGGNPSLWTQVYDISARVTNIGRYGGAYSVQLYIEFPNSEFISPPKILRGFDKVYLEPHLNGTVHFPILQRDLSVWNTEKAQWVIQKGVYRISIASSSEKVELYGEIDLSG
With B2, in the data set “purified protein”, the Km was 80 ± 10 µM, the maximal velocity (Vmax) came to 5.27 µmol/min/mg, the kcat came to 9.13 s⁻¹ and the kcat/Km was 114000 ± 1570 M⁻¹ s⁻¹.
